Tested on: tobacco leaves (Nicotiana tabacum)
Assay: Treatment of individual tobacco leaves with test solutions, nicotine reduction
Assay type: in vivo
Settings: incubated for about 3 days

B1: Inactive GOX: heat treated glucose oxidase, rendered substantially inactive due to the application of heat (protein, UniProt P13006 17-605, looked up)
Glucose oxidase: LPHYIRSNGIEASLLTDPKDVSGRTVDYIIAGGGLTGLTTAARLTENPNISVLVIESGSYESDRGPIIEDLNAYGDIFGSSVDHAYETVELATNNQTALIRSGNGLGGSTLVNGGTWTRPHKAQVDSWETVFGNEGWNWDNVAAYSLQAERARAPNAKQIAAGHYFNASCHGVNGTVHAGPRDTGDDYSPIVKALMSAVEDRGVPTKKDFGCGDPHGVSMFPNTLHEDQVRSDAAREWLLPNYQRPNLQVLTGQYVGKVLLSQNGTTPRAVGVEFGTHKGNTHNVYAKHEVLLAAGSAVSPTILEYSGIGMKSILEPLGIDTVVDLPVGLNLQDQTTATVRSRITSAGAGQGQAAWFATFNETFGDYSEKAHELLNTKLEQWAEEAVARGGFHNTTALLIQYENYRDWIVNHNVAYSELFLDTAGVASFDVWDLLPFTRGYVHILDKDPYLHHFAYDPQYFLNELDLLGQAAATQLARNISNSGAMQTYFAGETIPGDNLAYDADLSAWTEYIPYHFRPNYHGVGTCSMMPKEMGGVVDNAARVYGVQGLRVIDGSIPPTQMSSHVMTVFYAMALKISDAILEDYASMQ
modifications: heat-inactivated
Which “Reduction of Nicotine” value does the source give for B1 here?
Its value is 0.1 mg/g.
